# Experimental data reported in US20240132615A1 (ICHNOS SCIENCES, published 2024).
# Numbering of substitutions follows the chain as printed.
# T1: human BCMA on cells (NCI-H929, NCI-H929 CD38 KO, MOLP-8) (human, UniProt Q02223 1-184)
# T1 construct: whole, on cells; endogenous BCMA of myeloma cell lines
# T1 sequence (looked up): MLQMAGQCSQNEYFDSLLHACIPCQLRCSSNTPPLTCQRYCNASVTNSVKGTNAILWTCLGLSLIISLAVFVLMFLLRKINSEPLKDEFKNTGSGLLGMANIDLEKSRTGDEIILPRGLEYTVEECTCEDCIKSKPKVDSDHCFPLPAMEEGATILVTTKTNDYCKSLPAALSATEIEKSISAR
# T2: recombinant human BCMA protein (Acrobiosystems BCA-H522y) (human, UniProt Q02223 1-54)
# T2 construct: bought protein
# T2 sequence (looked up): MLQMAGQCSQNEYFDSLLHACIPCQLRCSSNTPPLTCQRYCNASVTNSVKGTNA
# T3: recombinant human BCMA Fc fusion protein (Acrobiosystems BC7-H5254 / BCA-H5254) (human, UniProt Q02223 1-54)
# T3 construct: also called recombinant BCMA-Fc protein; not shown: Fc of the bought fusion protein, not described
# T3 sequence (looked up): T2 sequence (looked up)
# T4: Biotinylated Human BCMA/TNFRSF17 Protein, His, Avitag (Acrobiosystems BCA-H82E4) (human, UniProt Q02223 1-54, biotinylated)
# T4 construct: bought protein; also called biotinylated recombinant human BCMA protein; hBCMA
# T4 sequence (looked up): T2 sequence (looked up)
# B1: Anti-BCMA-E6-PP02-G2 FAB (Fab, V domains shown)
# VH: EVQLLESGGGLVQPGGSLRLSCAASGFTFSYYAMTWVRQAPGKGLEWVGTISQSVGQVVKYADSVKGRFTISRDNSKNTLYLQMNSLRAEDTAVYYCARSPYSYLHGYYGFDYWGQGTLVTVSS
# VL: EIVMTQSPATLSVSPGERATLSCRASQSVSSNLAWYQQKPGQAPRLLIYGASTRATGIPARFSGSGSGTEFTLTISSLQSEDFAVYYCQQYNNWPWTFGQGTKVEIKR
# notes: Fab
# B2: Anti-BCMA-D3-MP05-F4 FAB (Fab, V domains shown)
# VH: EVQLVESGGGLIQPGGSLRLSCAASGFIFSHYEMNWVRQAPGKGLEWVSAIGQGGNTVYADSVKGRFTISRDNSKNTLYLQMNSLRAEDTAVYYCARVPYSYLGYQGADIWGQGTLVTVSS
# VL: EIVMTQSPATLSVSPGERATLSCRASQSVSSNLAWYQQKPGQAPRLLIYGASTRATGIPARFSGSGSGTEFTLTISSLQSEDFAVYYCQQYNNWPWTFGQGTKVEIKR
# notes: Fab
# B3: Anti-BCMA-E6-PP02-D2 FAB (Fab, V domains shown)
# VH: EVQLLESGGGLVQPGGSLRLSCAASGFTFSYYAMTWVRQAPGKGLEWVSTISQQNEQTKYADSVKGRFTISRDNSKNTLYLQMNSLRAEDTAVYYCARSPYSYLHGYYGFDYWGQGTLVTVSS
# VL: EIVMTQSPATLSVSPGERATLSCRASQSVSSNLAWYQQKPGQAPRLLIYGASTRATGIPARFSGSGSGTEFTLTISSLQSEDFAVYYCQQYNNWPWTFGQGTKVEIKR
# notes: Fab
# B4: Anti-BCMA-E6-PP02-B4 FAB (Fab, V domains shown)
# VH: B3 VH with Q54P, N55G, E56F, Q57D, T58A
# VL: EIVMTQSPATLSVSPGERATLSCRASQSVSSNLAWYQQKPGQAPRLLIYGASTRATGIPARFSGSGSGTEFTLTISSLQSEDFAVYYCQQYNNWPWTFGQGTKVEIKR
# notes: Fab
# B5: Anti-BCMA-E6-PP02-E6 FAB (Fab, V domains shown)
# VH: B3 VH with Q54A, N55G, E56R, Q57D, T58F
# VL: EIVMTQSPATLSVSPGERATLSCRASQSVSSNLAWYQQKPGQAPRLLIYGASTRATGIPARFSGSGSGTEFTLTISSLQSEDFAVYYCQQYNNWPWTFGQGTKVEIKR
# notes: Fab; also called anti-BCMA-E6-E6; E6-E6
# B6: Anti-BCMA-E6-PP02-C7 FAB (Fab, V domains shown)
# VH: B3 VH with Q54S, N55G, E56L, Q57V, T58P
# VL: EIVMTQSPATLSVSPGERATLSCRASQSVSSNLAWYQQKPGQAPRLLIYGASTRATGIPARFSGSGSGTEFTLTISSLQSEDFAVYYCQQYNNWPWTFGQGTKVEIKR
# notes: Fab
# B7: Anti-BCMA-E6-PP02-A3 FAB (Fab, V domains shown)
# VH: B3 VH with Q53S, E56D, Q57I
# VL: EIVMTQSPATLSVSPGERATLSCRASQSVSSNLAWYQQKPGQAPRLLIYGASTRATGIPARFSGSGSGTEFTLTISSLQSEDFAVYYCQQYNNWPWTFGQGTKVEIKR
# notes: Fab
# B8: Anti-BCMA-E6-PP02-B1 FAB (Fab, V domains shown)
# VH: B3 VH with I51V, Q54A, N55G, E56Y, Q57D
# VL: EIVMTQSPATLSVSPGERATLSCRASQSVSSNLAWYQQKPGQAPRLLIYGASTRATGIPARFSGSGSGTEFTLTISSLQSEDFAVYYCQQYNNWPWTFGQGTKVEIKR
# notes: Fab; also called anti-BCMA-E6-B1; E6-B1
# B9: Anti-BCMA-E6-PP02-G7 FAB (Fab, V domains shown)
# VH: B3 VH with N55W, E56D, Q57V
# VL: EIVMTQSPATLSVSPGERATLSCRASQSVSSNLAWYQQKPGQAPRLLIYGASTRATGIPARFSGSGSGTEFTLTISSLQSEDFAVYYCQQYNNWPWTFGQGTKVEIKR
# notes: Fab
# B10: Anti-BCMA-E6-PP02-G6 FAB (Fab, V domains shown)
# VH: B3 VH with S52A, Q54R, N55G, E56G
# VL: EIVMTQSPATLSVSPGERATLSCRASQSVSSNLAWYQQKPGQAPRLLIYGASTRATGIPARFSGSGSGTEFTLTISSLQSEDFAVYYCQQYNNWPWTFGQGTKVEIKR
# notes: Fab; also called anti-BCMA-E6-G6; E6-G6
# B11: Anti-BCMA-E6-PP02-F7 FAB (Fab, V domains shown)
# VH: B3 VH with S52G, Q54R, N55G, E56F
# VL: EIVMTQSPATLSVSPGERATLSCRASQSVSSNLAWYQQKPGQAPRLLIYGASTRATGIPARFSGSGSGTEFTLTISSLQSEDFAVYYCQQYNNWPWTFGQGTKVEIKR
# notes: Fab
# B12: Anti-CD38-B3-PP11-A2 FAB (Fab, V domains shown)
# VH: QVQLVQSGAEVKKPGSSVKVSCKASGQTTPMYSISWVRQAPGQGLEWMGRIIPTGANANYAQKFQGRVTITADESTSTAYMELSSLRSEDTAVYYCARSWPSLGSGWFDIWGQGTLVTVSS
# VL: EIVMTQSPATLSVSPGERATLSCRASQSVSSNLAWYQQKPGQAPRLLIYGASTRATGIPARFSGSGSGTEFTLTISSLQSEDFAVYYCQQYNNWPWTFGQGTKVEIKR
# notes: Fab
# B13: Anti-CD38-B3-PP11-D1b FAB (Fab, V domains shown)
# VH: B12 VH with Q27I, T28Q, P30R, M31W
# VL: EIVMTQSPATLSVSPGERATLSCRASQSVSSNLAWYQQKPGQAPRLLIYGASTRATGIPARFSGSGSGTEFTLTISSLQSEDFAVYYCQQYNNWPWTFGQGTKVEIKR
# notes: Fab
# B14: Anti-CD38-B3-PP11-D1a FAB (Fab, V domains shown)
# VH: B12 VH with Q27M, T28Q, P30R, M31W
# VL: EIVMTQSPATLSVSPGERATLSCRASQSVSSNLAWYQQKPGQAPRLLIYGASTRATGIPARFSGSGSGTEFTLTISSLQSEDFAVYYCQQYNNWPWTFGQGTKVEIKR
# notes: Fab
# B15: Anti-CD38-B3-PP11-C11 FAB (Fab, V domains shown)
# VH: B12 VH with Q27G, T28D, T29F, P30T, M31L, W100T, S102T, L103Y
# VL: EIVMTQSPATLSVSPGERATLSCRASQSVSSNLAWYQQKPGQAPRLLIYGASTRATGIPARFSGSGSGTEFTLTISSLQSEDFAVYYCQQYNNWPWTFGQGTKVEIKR
# notes: Fab; also called anti-CD38-B3-C11; B3-C11
# B16: Anti-CD38-B3-PP11-E1 FAB (Fab, V domains shown)
# VH: B12 VH with T28H, T29K, P30R, M31V
# VL: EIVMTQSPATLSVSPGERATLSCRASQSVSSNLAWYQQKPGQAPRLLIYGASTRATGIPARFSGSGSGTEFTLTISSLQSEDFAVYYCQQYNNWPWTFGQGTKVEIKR
# notes: Fab
# B17: Anti-CD38-B3-PP11-H10 FAB (Fab, V domains shown)
# VH: B12 VH with Q27G, T28D, T29F, P30T, M31L, S102H, L103Y
# VL: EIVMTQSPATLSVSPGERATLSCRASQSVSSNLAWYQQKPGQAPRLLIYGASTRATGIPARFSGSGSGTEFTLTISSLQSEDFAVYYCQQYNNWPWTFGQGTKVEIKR
# notes: Fab
# B18: Anti-CD38-B3-PP11-D11a FAB (Fab, V domains shown)
# VH: B12 VH with Q27G, T28D, T29F, P30T, M31L, S102I, S105N
# VL: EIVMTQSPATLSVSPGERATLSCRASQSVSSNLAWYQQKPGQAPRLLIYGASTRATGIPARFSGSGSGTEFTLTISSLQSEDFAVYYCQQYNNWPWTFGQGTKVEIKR
# notes: Fab
# B19: Anti-CD38-B3-PP11-E11 FAB (Fab, V domains shown)
# VH: B12 VH with Q27G, T28D, T29F, P30T, M31L, L103Y, S105K
# VL: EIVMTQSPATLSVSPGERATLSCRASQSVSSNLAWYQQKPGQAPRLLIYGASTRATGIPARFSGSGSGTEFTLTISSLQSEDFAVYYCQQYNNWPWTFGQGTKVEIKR
# notes: Fab
# B20: Anti-CD38-B3-PP11-H1a FAB (Fab, V domains shown)
# VH: B12 VH with T28N, T29E, P30R
# VL: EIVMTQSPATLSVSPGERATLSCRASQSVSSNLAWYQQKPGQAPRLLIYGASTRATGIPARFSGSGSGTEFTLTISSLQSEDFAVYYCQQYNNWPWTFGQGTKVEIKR
# notes: Fab
# B21: Anti-CD38-E2-UCP01-A10 FAB (Fab, V domains shown)
# VH: QVQLVQSGAEVKKPGSSVKVSCKASGLPDATYAIGWVRQAPGQGLEWMGRIIPVFGSAHYAQKFQGRVTITADESTSTAYMELSSLRSEDTAVYYCARGLGYYLYSSYYFDIWGQGTLVTVSS
# VL: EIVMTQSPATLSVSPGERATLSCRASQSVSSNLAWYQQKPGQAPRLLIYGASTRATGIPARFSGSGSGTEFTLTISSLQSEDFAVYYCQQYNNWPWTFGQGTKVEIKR
# notes: Fab
# B22: Anti-CD38-E2-UCP02-F3 FAB (Fab, V domains shown)
# VH: B21 VH with L27G, P28S, D29F, A30S, T31N, F55L, G56D, S57A
# VL: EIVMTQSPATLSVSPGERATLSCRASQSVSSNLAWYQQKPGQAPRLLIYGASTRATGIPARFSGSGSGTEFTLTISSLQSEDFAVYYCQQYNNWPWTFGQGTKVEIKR
# notes: Fab
# B23: Anti-CD38-E2-UCP02-G8 FAB (Fab, V domains shown)
# VH: B21 VH with L27G, P28S, D29F, A30S, T31N, V54A, F55L, S57G, A58V
# VL: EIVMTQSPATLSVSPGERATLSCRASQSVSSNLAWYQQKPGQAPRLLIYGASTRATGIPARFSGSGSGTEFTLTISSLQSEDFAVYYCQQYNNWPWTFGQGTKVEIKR
# notes: Fab
# B24: Anti-CD38-E2-UCP02-F8 FAB (Fab, V domains shown)
# VH: B21 VH with L27G, P28S, D29F, A30S, T31N, V54S, F55L, G56D, S57A, A58G
# VL: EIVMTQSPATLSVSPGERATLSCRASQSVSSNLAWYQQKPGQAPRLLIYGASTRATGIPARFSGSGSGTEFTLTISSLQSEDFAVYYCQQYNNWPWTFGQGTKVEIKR
# notes: Fab
# B25: Anti-CD38-E2-UCP02-A5 FAB (Fab, V domains shown)
# VH: B21 VH with L27G, P28S, D29F, A30S, T31N, V54D, F55L, S57A
# VL: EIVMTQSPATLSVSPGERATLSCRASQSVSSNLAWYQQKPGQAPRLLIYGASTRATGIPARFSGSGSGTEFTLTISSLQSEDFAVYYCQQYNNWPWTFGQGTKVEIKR
# notes: Fab; also called anti-CD38-E2-A5; E2-A5
# B26: Anti-CD38-E2-UCP02-D6 FAB (Fab, V domains shown)
# VH: B21 VH with L27G, P28S, D29F, A30S, T31N, V54R, F55L, G56D, S57A, A58E
# VL: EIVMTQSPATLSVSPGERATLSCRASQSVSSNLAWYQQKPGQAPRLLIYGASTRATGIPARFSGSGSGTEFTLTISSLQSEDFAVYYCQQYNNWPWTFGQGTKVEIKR
# notes: Fab
# B27: Anti-CD38-E2-UCP02-E7 FAB (Fab, V domains shown)
# VH: B21 VH with L27G, P28S, D29F, A30S, T31N, V54A, F55L, G56A, S57A, A58T
# VL: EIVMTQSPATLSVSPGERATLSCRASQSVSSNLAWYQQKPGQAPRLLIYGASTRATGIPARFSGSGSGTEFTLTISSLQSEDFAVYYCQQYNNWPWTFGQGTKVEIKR
# notes: Fab
# B28: anti-BCMA-PP02-A3 FAB (Fab, V domains shown)
# VH: EVQLLESGGGLVQPGGSLRLSCAASGFTFSQYAMSWVRQAPGKGLEWVSIISQDGGVTVYADSVKGRFTISRDNSKNTLYLQMNSLRAEDTAVYYCARSPYGGGSYIPHDSWGQGTLVTVSS
# VL: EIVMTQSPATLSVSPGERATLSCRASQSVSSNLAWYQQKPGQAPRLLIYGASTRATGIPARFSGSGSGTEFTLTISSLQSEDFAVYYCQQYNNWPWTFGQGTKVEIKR
# notes: Fab
# B29: anti-BCMA-UCP01-A10 FAB (Fab, V domains shown)
# VH: QVQLVQSGAEVKKPGSSVKVSCKASGYVFSDHIISWVRQAPGQGLEWMGGIIPHGGAPTYAQKFQGRVTITADESTSTAYMELSSLRSEDTAVYYCARDLFDYYPQGFDYWGQGTLVTVSS
# VL: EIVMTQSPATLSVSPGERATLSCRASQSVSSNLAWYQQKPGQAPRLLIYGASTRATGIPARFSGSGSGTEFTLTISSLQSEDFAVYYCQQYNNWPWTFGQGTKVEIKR
# notes: Fab
# B30: anti-BCMA-PP02-D3 FAB (Fab, V domains shown)
# VH: B2 VH with L103S, Q106S
# VL: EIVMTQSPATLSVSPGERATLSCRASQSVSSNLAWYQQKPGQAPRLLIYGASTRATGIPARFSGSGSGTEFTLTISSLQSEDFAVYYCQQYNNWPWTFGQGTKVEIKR
# notes: Fab; also called anti-BCMA-D3; anti-BCMA-D3 Fab
# Target: T1, human BCMA on cells (NCI-H929, NCI-H929 …)
# Assay: flow cytometry, NCI-H929 cells, one-site fit
row,Binder,Kd
1,B1,5.22 nM
2,B2,11.8 nM
3,B3,6.58 nM
4,B4,5.49 nM
5,B5,5.13 nM
6,B6,6.83 nM
7,B7,6.37 nM
8,B8,3.72 nM
9,B9,4.86 nM
10,B10,5.78 nM
11,B11,5.53 nM

# Target: T5, recombinant cynomolgus monkey CD38-ECD-C-his protein (cynomolgus monkey, UniProt Q5VAN0 45-301)
# T5 construct: made in house; Q5VAN0 residues 43-301 (residue 44 deleted) with C-terminal 6-His; also called cynomolgus monkey CD38-C-His; recombinant cynomolgus monkey CD38 protein
# Assay: SPR, Fab as analyte, captured cynomolgus CD38-his
row,Binder,Kd
1,B12,62.5 nM
2,B13,14.6 nM
3,B14,9.6 nM
4,B15,25 nM
5,B16,26.3 nM
6,B17,22.7 nM
7,B18,17.3 nM
8,B19,8.9 nM
9,B20,17.9 nM
10,B21,8.6 nM
11,B22,2.4 nM
12,B23,4.2 nM
13,B24,24.5 nM
14,B25,4.4 nM
15,B26,1.1 nM
16,B27,1.8 nM

# Target: T2, recombinant human BCMA protein …
# Assay: SPR, Fab as analyte, immobilised human BCMA, 1:1 Langmuir
row,Binder,Kd
1,B28,318 nM
2,B29,214 nM
3,B30,15 nM

# Target: T3, recombinant human BCMA Fc fusion …
# Assay: SPR, Fab as analyte, captured human BCMA-Fc
row,Binder,Kd
1,B2,0.78 nM

# Target: T4, Biotinylated Human BCMA/TNFRSF17 …
# Assay: SPR, Fab as analyte, biotin-captured human BCMA
row,Binder,Kd
1,B1,0.176 nM
2,B3,0.342 nM
3,B4,0.086 nM
4,B5,0.169 nM
5,B6,0.3 nM
6,B7,0.33 nM
7,B8,0.182 nM
8,B9,0.061 nM
9,B10,0.33 nM
10,B11,0.22 nM

# Target: recombinant cynomolgus monkey BCMA protein (Acrobiosystems BCA-C52H7) (cynomolgus monkey, UniProt A0A2K5UD97 1-53)
# Assay: SPR, Fab as analyte, immobilised cynomolgus BCMA, 1:1 Langmuir
# Chain of recombinant cynomolgus monkey BCMA protein (Acrobiosystems BCA-C52H7) (A0A2K5UD97 entry or part of it): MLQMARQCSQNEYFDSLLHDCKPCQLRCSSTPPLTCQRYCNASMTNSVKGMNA
row,Binder,Kd
1,B30,40 nM

# Target: T6, biotinylated recombinant cynomolgus monkey BCMA Fc fusion protein (Acrobiosystems BCA-C82F4) (cynomolgus monkey, UniProt A0A2K5UD97 1-53)
# T6 construct: bought protein; not shown: Fc of the bought fusion protein, not described
# Assay: SPR, Fab as analyte, biotin-captured cynomolgus BCMA-Fc
# T6 sequence (A0A2K5UD97 entry or part of it): as above
row,Binder,Kd
1,B1,0.728 nM
2,B3,0.97 nM
3,B4,0.857 nM
4,B5,0.615 nM
5,B6,1.19 nM
6,B7,0.915 nM
7,B8,0.51 nM
8,B9,0.237 nM
9,B10,2.26 nM
10,B11,0.964 nM

# Target: T1, human BCMA on cells (NCI-H929, NCI-H929 …)
# Assay: flow cytometry, NCI-H929 cells
row,Binder,Maximum binding (RFI)
1,B1,40500 RFI
2,B2,29900 RFI
3,B3,36300 RFI
4,B4,43500 RFI
5,B5,43200 RFI
6,B6,38600 RFI
7,B7,40200 RFI
8,B8,34700 RFI
9,B9,39400 RFI
10,B10,46500 RFI
11,B11,44700 RFI

# Target: T7, Biotinylated Human CD38 Protein, Avitag, His Tag (Acrobiosystems CD8-H82E7) (human, UniProt P28907 43-300, biotinylated)
# T7 construct: bought protein; also called biotinylated recombinant human CD38 protein; human CD38-avi-his
# Assay: SPR, Fab as analyte, biotin-captured human CD38
row,Binder,Kd
1,B12,38.4 nM
2,B13,5.8 nM
3,B14,10 nM
4,B15,5.4 nM
5,B16,10.5 nM
6,B17,6.2 nM
7,B18,8.2 nM
8,B19,2 nM
9,B20,15.3 nM
10,B21,9.4 nM
11,B22,3.5 nM
12,B23,5.2 nM
13,B24,17.6 nM
14,B25,23.6 nM
15,B26,4.9 nM
16,B27,2.2 nM

# Target: T8, recombinant cynomolgus monkey BCMA Fc fusion protein (Acrobiosystems BCA-C5253) (cynomolgus monkey, UniProt A0A2K5UD97 1-53)
# T8 construct: bought protein; not shown: Fc of the bought fusion protein, not described
# Assay: SPR, Fab as analyte, captured cynomolgus BCMA-Fc
# T8 sequence (A0A2K5UD97 entry or part of it): as above
row,Binder,Kd
1,B2,2.83 nM
